# Reference: article PMC7735993, “Role of Arabidopsis Splicing factor SF1 in Temperature-Responsive Alternative Splicing of FLM pre-mRNA”
# B1: FLM BP2 (ssRNA)
# RNA: UUCUAAUAUUCUUCUGGAUGCGGUUUUUGGUGUUAU
# B2: FLM BP1 (ssRNA)
# RNA: UUCUAAUGCAUUUUUGUUUUAUCU
# Target: His-AtSF1(1-562) (Arabidopsis thaliana, UniProt Q9LU44 1-562)
# Test: EMSA; 23 C; unlabeled self competitor (10-200x) reduces shift; LightShift Chemiluminescent RNA EMSA kit, 23 C, 30 min, 8% native PAGE; buffer, salt and pH not stated
# Conditions: protein: recombinant; tags: His; label: 3' biotin
# Sequence of His-AtSF1(1-562) (Q9LU44 1-562): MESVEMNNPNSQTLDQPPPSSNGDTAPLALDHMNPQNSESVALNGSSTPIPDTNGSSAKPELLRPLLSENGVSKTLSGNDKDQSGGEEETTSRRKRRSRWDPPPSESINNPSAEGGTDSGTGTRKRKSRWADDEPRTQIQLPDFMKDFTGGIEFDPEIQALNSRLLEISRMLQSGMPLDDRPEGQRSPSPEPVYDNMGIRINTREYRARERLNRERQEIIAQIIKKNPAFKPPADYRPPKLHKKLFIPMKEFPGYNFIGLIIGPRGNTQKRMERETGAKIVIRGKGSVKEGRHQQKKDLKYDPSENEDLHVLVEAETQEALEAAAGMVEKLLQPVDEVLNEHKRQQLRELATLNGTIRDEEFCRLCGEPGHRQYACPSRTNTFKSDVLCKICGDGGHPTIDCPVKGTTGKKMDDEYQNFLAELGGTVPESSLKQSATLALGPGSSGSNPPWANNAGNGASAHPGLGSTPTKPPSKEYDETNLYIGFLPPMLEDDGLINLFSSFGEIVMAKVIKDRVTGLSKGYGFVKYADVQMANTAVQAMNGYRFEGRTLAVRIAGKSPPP
row,Binder,binding result
1,B1,binds
2,B2,binds
